One test concerns the target CX3CR1 (human) (UniProt P49238). Briefly: cell-based or functional assay.
Another test has as its target CXCR4 (human) (UniProt P61073). Nature of the test: cell-based or functional assay.
Sequence of UniProt P61073 (P61073 whole entry): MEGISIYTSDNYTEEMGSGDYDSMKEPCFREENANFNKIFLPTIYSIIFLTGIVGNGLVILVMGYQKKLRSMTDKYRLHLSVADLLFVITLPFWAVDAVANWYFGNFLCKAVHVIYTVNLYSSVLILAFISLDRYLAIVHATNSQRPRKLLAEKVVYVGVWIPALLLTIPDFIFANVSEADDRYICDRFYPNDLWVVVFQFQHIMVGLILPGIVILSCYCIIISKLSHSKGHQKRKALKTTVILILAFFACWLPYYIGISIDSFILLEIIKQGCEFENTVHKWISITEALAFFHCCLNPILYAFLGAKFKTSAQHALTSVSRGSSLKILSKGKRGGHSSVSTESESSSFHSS

Sequence of UniProt P49238 (P49238 whole entry): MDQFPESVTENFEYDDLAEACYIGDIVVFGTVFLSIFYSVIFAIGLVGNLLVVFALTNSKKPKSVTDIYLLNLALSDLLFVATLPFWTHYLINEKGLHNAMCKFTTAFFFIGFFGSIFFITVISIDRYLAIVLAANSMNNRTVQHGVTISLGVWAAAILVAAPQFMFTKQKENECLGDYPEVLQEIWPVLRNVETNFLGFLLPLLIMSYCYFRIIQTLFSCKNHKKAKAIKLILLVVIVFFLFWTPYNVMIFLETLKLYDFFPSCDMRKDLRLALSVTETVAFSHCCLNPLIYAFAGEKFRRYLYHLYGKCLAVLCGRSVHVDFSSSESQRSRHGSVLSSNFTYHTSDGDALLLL

The substance “anti-human CX3CR1 (clone 2A9-1; MBL) (antibody)” returned a decrease of neurosphere-induced migration of RS-MSCs and mMSCs with CX3CR1 (human) of 40%.

With “anti-human CXCR4 (clone 12G5; R&D Systems) (antibody)”, the decrease of neurosphere-induced migration of RS-MSCs and mMSCs with CXCR4 (human) amounted to 40%.
